Results on 13 substances are retold here after paper PMC8287954.

Where “and” joins values, the source holds several entries; their conditions need not be identical. Identical values can stand only once.

For one experiment, the target named is hsSMNΔ5(S266P)•Gemin2. The experiment in a line: SEC-MALS. Conditions: 20°C; peak concentration 0.2 µM; parent: 231 (188-454). (In general: SEC sorts molecules by how far they enter the pores of the column.)
The target in experiment [1] is hsSMNΔ5(Y272C)•Gemin2, Q16637;O14893. The experiment in a line: SEC-MALS. Conditions: 20°C; peak concentration 0.8 µM; parent: 231 (188-454).
In experiment [2] the target is SMN (SMN•Gemin2 dimer) (Schizosaccharomyces pombe) (UniProt Q09808). Conditions: cited from earlier work.
Another experiment has as its target hsSMNΔ5(S262G)•Gemin2. The experiment in a line: SEC-MALS. To be noted: 20°C; peak concentration 0.3 µM; parent: 231 (188-454).
A further experiment deals with hsSMNΔ5(G275S)•Gemin2 (UniProt O14893). The experiment in a line: SEC-MALS. To be noted: 20°C; peak concentration 0.5 µM; parent: 231 (188-454).
Sequence of hsSMNΔ5(G275S)•Gemin2 (O14893 whole entry, looked up, stated change not applied): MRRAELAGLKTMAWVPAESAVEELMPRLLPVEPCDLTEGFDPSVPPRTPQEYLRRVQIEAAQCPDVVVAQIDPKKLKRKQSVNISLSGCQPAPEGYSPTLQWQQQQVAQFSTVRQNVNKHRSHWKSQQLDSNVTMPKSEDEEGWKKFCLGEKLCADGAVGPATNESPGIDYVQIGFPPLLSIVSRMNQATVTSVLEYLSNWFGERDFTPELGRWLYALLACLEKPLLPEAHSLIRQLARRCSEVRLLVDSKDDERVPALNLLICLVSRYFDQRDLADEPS
Experiment [3] addresses Ce^2–184-Sp^140–152 chimera•Gemin2 (Caenorhabditis elegans | Schizosaccharomyces pombe | not stated) (UniProt Q09808). The experiment in a line: SEC-MALS; Superdex 200 10/300 GL, 0.5 ml/min, room temperature (20°C), 50 mM HEPES-NaOH pH 7.5, 250 mM NaCl, 5 mM DTT; self-association of the SMN•G2 unit, (SMN•G2)n.
In another experiment the target is hsSMNΔ5(S262I)•Gemin2. The experiment in a line: SEC-MALS. Conditions: 20°C; peak concentration 0.5 µM; parent: 231 (188-454).
Experiment [4] deals with hsSMNΔ5(M263T)•Gemin2, Q16637;O14893. The experiment can be described thus: SEC-MALS. Conditions: 20°C; peak concentration 0.5 µM; parent: 231 (188-454).
In experiment [5] the target is hsSMNΔ5(L260S)•Gemin2, Q16637;O14893. The experiment in a line: SEC-MALS. Conditions: 20°C; peak concentration 0.3 µM; parent: 231 (188-454).
Experiment [6] concerns the target Sp^1–117-Hs^253–294 chimera•Gemin2 (Schizosaccharomyces pombe | human | not stated) (UniProt Q09808). The experiment can be described thus: SEC-MALS; Superdex 200 10/300 GL, 0.5 ml/min, room temperature (20°C), 50 mM HEPES-NaOH pH 7.5, 250 mM NaCl, 5 mM DTT; self-association of the SMN•G2 unit, (SMN•G2)n.
The target of experiment [7] is hsSMNΔ5(M263R)•Gemin2, Q16637;O14893. The experiment in a line: SEC-MALS. To be noted: 20°C; peak concentration 0.8 µM; parent: 231 (188-454).
Another experiment addresses hsSMNΔ5(G279C)•Gemin2. The experiment can be described thus: SEC-MALS. To be noted: 20°C; peak concentration 0.5 µM; parent: 231 (188-454).
The target of experiment [8] is spSMN-GCN4(IL) chimera•Gemin2 (Schizosaccharomyces pombe | S. cerevisiae) (UniProt P0CU08). The experiment can be described thus: SEC-MALS + AUC + other: SAXS; spSMN-GCN4 fusions in complex with Gemin2; SEC-MALS, SV-AUC and SAXS named together.

Sequence of hsSMNΔ5•Gemin2 complex (from UniProt O14893) S262G (O14893 whole entry, looked up, stated change not applied, one chain of several): as the sequence (O14893 whole entry, looked up, stated change not applied) above
Sequence of hsSMNΔ5•Gemin2 complex (from UniProt O14893) S266P (O14893 whole entry, looked up, stated change not applied, one chain of several): as the sequence (O14893 whole entry, looked up, stated change not applied) above
Sequence of hsSMNΔ5•Gemin2 complex (from UniProt O14893) G279C (O14893 whole entry, looked up, stated change not applied, one chain of several): as the sequence (O14893 whole entry, looked up, stated change not applied) above
Sequence of hsSMNΔ5•Gemin2 complex (from UniProt O14893) S262I (O14893 whole entry, looked up, stated change not applied, one chain of several): as the sequence (O14893 whole entry, looked up, stated change not applied) above
Sequence of hsSMNΔ5•Gemin2 complex (from UniProt O14893) G275S (O14893 whole entry, looked up, stated change not applied, one chain of several): as the sequence (O14893 whole entry, looked up, stated change not applied) above
Sequence of spSMN-GCN4(IL) chimera•Gemin2 (P0CU08 whole entry, looked up, change not shown): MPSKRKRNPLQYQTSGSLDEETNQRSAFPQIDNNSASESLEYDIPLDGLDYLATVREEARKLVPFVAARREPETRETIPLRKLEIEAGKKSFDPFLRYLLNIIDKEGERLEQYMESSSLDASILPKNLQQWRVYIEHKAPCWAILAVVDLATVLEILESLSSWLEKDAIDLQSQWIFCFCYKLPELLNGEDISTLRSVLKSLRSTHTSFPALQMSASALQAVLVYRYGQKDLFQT
Sequence of hsSMNΔ5•Gemin2 complex (from UniProt O14893) Y272C (Q16637 whole entry Y272C, stated change not applied): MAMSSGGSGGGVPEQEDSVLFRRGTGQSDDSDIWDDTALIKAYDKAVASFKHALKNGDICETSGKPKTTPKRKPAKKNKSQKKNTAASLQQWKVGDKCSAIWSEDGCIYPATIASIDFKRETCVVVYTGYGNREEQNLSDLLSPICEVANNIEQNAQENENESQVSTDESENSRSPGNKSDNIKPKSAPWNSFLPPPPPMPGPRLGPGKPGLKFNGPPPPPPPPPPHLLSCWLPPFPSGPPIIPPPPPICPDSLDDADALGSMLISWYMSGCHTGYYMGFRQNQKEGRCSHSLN
Sequence of hsSMNΔ5•Gemin2 complex (from UniProt O14893) Y272C (O14893 12-280, stated change not applied): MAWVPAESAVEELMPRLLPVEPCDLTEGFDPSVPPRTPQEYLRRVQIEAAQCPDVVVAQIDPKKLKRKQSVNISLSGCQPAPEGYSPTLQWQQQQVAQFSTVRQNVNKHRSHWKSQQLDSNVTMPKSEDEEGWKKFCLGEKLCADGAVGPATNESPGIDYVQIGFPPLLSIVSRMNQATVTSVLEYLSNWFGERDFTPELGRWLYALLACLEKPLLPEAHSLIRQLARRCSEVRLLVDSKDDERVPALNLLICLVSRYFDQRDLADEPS
Sequence of hsSMNΔ5•Gemin2 complex (from UniProt O14893) M263R (Q16637 whole entry M263R, stated change not applied): as the sequence (Q16637 whole entry Y272C, stated change not applied) above, with M263R, C272Y counted along it
Sequence of hsSMNΔ5•Gemin2 complex (from UniProt O14893) M263R (O14893 12-280, stated change not applied): as the sequence (O14893 12-280, stated change not applied) above
Sequence of SMN (SMN•Gemin2 dimer) (Q09808 whole entry): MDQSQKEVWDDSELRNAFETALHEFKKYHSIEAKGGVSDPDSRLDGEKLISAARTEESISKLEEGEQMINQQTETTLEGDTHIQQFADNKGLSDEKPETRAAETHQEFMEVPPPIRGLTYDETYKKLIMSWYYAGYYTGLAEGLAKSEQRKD
Sequence of hsSMNΔ5•Gemin2 complex (from UniProt O14893) M263T (Q16637 whole entry M263T, stated change not applied): as the sequence (Q16637 whole entry Y272C, stated change not applied) above, with M263T, C272Y counted along it
Sequence of hsSMNΔ5•Gemin2 complex (from UniProt O14893) M263T (O14893 12-280, stated change not applied): as the sequence (O14893 12-280, stated change not applied) above
Sequence of hsSMNΔ5•Gemin2 complex (from UniProt O14893) L260S (Q16637 whole entry L260S, stated change not applied): as the sequence (Q16637 whole entry Y272C, stated change not applied) above, with L260S, C272Y counted along it
Sequence of hsSMNΔ5•Gemin2 complex (from UniProt O14893) L260S (O14893 12-280, stated change not applied): as the sequence (O14893 12-280, stated change not applied) above

“hsSMNΔ5•Gemin2 complex (from UniProt O14893) S266P”: the other: SEC-MALS Mw with hsSMNΔ5(S266P)•Gemin2 is 99.

On to “hsSMNΔ5•Gemin2 complex (from UniProt O14893) Y272C”, for which the other: SEC-MALS Mw in experiment [1] worked out at 78.

In general, Kd refers to the free concentration of one partner at which half of the binding sites on the other are occupied at equilibrium, for simple one-to-one binding. Consider “SMN (SMN•Gemin2 dimer) (from UniProt Q09808)”, for which, in experiment [2], the Kd was 1000 nM.

Consider “hsSMNΔ5•Gemin2 complex (from UniProt O14893) S262G”, for which the other: SEC-MALS Mw in the experiment with hsSMNΔ5(S262G)•Gemin2 was 275.

In the case of “hsSMNΔ5•Gemin2 complex (from UniProt O14893) G275S”, in the experiment with hsSMNΔ5(G275S)•Gemin2, the other: SEC-MALS Mw is 58.

One may read the stoichiometry N as the number of molecules, sites or subunits per partner or assembly. In experiment [3], “Ce^2–184-Sp^140–152 chimera•Gemin2 (from UniProt Q09808 140-152) (complex)” registered a stoichiometry N of 2.

For the substance “hsSMNΔ5•Gemin2 complex (from UniProt O14893) S262I”, in the experiment with hsSMNΔ5(S262I)•Gemin2, the other: SEC-MALS Mw turned out to be 306.

As for “hsSMNΔ5•Gemin2 complex (from UniProt O14893) M263T”, the other: SEC-MALS Mw in experiment [4] was 115.

For “hsSMNΔ5•Gemin2 complex (from UniProt O14893) L260S”, the other: SEC-MALS Mw in experiment [5] turned out to be 124.

With “Sp^1–117-Hs^253–294 chimera•Gemin2 (from UniProt Q09808 1-117; Q16637 253-294) (complex)”, the stoichiometry N in experiment [6] was 4 and 8.

Take “hsSMNΔ5•Gemin2 complex (from UniProt O14893) M263R”: the other: SEC-MALS Mw in experiment [7] was 113.

With “hsSMNΔ5•Gemin2 complex (from UniProt O14893) G279C”, the other: SEC-MALS Mw with hsSMNΔ5(G279C)•Gemin2 stood at 586.

As to “spSMN-GCN4(IL) chimera•Gemin2 (from UniProt P0CU08 1-235) (complex)”, the stoichiometry N in experiment [8] came out at 2.
